The values below come from the supplement of paper PMC6379048.

In general, EC50 refers to the concentration at which the effect is half-maximal. Low values mean higher potency in that assay, high ones lower potency in that assay.

Assay in all cases: EC50 of free RNA motif oligo competing protein binding to immobilised probe
One series concerns the target T1, FUBP1 (UniProt Q96AE4).
T1 sequence: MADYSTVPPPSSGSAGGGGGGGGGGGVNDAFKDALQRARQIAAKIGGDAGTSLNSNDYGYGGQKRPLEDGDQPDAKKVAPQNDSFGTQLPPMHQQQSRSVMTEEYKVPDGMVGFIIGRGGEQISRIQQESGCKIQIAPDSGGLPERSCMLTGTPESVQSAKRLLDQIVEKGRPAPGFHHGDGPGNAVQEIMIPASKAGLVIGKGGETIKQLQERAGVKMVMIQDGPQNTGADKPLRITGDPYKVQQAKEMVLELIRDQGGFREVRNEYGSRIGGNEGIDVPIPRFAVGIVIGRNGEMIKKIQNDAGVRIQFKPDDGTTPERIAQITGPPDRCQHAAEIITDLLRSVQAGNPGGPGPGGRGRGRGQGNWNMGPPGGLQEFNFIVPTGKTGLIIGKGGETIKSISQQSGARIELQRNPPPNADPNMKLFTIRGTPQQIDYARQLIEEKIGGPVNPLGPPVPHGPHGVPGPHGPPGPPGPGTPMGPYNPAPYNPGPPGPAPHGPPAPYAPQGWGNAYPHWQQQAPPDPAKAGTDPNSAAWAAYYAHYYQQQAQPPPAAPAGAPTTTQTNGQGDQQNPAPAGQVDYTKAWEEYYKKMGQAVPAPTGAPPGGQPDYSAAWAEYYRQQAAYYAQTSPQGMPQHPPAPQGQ
A digest of the protocol: (§1)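 Kd was calculated as EC50, taken from a four-parameter log-logistic fit, multiplied by a protein-dependent depletion factor. The assay used HEK293-FT lysate (2.5 mg protein/well) pre-incubated for 1 h at 4°C with free RNA oligos (0 nM to 30 μM), then incubated for 30 min at 4°C with the matching oligos bound through a 5′-amino-C6 linker to NHS-Sepharose beads. Bound proteins were measured by label-free LC-MS/MS and normalised to the control.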

Another series concerns the target PTBP3 (UniProt O95758). A digest of the protocol:
as §1

Another series addresses SF3B6 (UniProt Q9Y3B4). A digest of the protocol: as §1
The next series addresses CPSF4 (UniProt O95639). A digest of the protocol:
as §1

The next series concerns the target RPS17 (UniProt P08708). A digest of the protocol:
as §1

For another series, the target named is T2, ANGEL2 (UniProt Q5VTE6).
T2 sequence: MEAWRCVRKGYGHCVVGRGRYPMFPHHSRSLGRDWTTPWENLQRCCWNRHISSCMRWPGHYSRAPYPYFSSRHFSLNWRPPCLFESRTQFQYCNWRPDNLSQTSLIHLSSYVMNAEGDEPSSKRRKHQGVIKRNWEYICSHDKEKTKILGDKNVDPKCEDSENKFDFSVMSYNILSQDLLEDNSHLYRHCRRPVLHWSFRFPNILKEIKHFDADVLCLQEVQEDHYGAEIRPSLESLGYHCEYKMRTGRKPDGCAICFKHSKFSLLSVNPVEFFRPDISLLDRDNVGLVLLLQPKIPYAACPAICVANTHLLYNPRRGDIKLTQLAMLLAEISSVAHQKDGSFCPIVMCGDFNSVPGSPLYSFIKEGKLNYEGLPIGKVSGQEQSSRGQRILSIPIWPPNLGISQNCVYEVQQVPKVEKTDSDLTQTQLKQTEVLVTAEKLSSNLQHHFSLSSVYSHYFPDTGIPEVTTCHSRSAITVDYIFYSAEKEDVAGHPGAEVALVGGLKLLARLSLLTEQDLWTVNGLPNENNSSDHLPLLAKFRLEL
A digest of the protocol: as §1

For a further series, the target named is MRPL37 (UniProt Q9BZE1). Summed up:
as §1

The target in another series is T3, PLOD1 (UniProt Q02809).
T3 sequence: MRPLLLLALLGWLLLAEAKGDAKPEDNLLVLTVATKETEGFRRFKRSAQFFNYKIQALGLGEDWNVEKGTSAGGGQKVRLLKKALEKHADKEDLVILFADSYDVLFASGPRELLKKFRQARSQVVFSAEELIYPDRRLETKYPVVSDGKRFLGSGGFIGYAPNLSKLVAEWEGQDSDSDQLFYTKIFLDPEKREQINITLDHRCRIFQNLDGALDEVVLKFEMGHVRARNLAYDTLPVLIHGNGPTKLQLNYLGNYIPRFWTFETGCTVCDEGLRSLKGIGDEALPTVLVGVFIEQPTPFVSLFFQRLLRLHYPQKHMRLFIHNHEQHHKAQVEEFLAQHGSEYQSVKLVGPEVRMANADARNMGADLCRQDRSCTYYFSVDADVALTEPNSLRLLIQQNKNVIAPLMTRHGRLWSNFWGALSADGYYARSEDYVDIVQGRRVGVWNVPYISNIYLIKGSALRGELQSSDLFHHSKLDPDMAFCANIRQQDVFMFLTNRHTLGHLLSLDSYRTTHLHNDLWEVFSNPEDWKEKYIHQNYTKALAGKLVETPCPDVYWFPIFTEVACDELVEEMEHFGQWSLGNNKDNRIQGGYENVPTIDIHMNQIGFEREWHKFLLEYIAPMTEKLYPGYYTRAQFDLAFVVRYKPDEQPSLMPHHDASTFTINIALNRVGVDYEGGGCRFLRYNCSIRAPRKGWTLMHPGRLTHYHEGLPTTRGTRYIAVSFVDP
Summed up: as §1

The next series concerns the target MRPS2 (UniProt Q9Y399). A digest of the protocol: as §1
A further series has as its target PTCD3 (UniProt Q96EY7). A digest of the protocol:
as §1

Another series deals with MRPS22 (UniProt P82650). A digest of the protocol: as §1
For the next series, the target named is MRPS27 (UniProt Q92552). A digest of the protocol:
as §1

For another series, the target named is TTC37 (UniProt Q6PGP7). A digest of the protocol: as §1
TTC37, sequence (Q6PGP7 whole entry): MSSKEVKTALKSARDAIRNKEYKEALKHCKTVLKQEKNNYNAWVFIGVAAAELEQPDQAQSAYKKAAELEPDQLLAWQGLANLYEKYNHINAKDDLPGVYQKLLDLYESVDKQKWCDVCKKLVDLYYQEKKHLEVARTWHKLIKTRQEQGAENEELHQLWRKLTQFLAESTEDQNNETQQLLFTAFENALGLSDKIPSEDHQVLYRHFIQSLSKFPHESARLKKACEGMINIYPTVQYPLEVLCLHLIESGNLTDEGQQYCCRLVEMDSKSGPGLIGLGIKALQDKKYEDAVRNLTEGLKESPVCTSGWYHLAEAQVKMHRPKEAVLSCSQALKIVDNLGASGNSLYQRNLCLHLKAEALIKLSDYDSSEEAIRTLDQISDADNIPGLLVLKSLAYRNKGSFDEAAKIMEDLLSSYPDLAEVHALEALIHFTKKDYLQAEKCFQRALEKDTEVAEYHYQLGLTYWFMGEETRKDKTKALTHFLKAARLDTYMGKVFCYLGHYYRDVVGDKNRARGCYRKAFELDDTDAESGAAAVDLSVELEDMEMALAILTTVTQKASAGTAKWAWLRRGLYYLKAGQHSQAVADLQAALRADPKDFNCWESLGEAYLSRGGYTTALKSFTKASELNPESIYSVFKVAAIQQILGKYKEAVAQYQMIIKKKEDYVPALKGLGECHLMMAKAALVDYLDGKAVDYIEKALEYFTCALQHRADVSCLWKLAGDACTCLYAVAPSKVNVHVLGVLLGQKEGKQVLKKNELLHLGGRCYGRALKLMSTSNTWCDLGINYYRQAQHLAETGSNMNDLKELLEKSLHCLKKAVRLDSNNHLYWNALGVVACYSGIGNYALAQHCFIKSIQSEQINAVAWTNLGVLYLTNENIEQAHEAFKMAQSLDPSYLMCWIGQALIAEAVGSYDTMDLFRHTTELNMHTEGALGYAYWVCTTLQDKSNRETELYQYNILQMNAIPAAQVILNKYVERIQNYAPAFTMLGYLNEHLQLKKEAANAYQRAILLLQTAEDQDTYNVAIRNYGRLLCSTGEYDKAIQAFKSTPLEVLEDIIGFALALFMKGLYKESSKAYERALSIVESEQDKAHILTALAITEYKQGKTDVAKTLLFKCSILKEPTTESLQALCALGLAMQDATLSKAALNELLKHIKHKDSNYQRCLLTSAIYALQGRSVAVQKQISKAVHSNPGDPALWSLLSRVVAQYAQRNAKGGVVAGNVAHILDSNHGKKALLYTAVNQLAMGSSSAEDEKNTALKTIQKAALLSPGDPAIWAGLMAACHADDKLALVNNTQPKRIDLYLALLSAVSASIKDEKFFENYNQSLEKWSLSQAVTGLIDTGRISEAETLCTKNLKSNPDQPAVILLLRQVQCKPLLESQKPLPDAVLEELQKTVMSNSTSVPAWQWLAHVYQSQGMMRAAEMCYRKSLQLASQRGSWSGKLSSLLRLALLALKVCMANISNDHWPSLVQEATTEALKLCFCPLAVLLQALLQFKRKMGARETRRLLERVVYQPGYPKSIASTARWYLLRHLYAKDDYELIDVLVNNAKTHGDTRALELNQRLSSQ

SF3B6, sequence (Q9Y3B4 whole entry): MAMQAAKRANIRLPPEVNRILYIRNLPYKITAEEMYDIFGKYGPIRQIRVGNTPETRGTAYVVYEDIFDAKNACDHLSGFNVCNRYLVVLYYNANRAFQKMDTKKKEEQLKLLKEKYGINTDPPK
CPSF4, sequence (O95639 whole entry): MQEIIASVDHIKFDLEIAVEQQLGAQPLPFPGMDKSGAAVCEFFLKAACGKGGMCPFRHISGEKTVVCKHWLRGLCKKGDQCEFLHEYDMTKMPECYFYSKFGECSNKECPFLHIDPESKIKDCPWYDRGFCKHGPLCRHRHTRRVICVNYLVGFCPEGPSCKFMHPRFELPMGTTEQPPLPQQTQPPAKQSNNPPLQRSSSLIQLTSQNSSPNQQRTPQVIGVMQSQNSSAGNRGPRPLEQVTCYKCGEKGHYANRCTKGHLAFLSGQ
PTBP3, sequence (O95758 whole entry): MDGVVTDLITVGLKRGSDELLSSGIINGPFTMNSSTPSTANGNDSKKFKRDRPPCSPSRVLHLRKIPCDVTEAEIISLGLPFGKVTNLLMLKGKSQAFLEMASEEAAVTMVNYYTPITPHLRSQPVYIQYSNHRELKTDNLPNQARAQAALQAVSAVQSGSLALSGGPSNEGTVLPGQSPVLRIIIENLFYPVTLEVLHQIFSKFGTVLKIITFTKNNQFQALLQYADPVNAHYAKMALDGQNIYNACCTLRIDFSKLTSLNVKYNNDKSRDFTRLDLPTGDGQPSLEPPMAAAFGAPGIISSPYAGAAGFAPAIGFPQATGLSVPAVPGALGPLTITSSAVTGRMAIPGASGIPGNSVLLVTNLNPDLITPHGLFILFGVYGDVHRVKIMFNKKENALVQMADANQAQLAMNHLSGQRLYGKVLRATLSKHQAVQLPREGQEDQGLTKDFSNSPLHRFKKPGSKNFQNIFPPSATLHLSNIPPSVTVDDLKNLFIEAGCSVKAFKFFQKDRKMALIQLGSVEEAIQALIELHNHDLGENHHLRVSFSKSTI

In the case of AAUAAA, the EC50 with FUBP1 was found to be 5.75 µM; with PTBP3, 6.99 µM; with SF3B6 it was 4.62 µM; in the series with CPSF4, 55.5 nM; in the series with RPS17 it was 128 nM.

With CUGUCCU, the EC50 came to 504 nM in the series with ANGEL2 and 245 nM in the series with MRPL37.

For the sequence UAUUUAU, the EC50 with PLOD1 was 6.72 µM; in the series with MRPS2, 29.1 nM; with PTCD3, 50 nM; with MRPS22 it was 85.6 nM; with MRPS27, 82.5 nM; in the series with TTC37, 947 nM.
